The source of these data is US20150238626A1, “RECEPTOR LIGAND LINKED CYTOTOXIC MOLECULES” (ONTOCHEM GMBH, priority 2012, published 2015).

Experiment [1] addresses human Y2 receptor C-terminally fused to EYFP (human) (UniProt P49146).
Experiment [2] shares this target. This is another data set of the same source.
Experiment [3] has as its target human Y1 receptor C-terminally fused to EYFP (human) (UniProt P25929).

Turning to NPY (ligand), in experiment [1], the EC50, functional IP3 second messenger assay was 0.5 nM. Also, the EC50, functional CRE reporter gene assay in experiment [2] was determined as 0.87 nM; in experiment [3], 0.77 nM.
